Results on two molecules are retold here after patent publication US10100120B2, “Antibody which specifically binds to human CRTH2” (KYOWA HAKKO KIRIN CO., LTD, priority 2015, dated 2018).

Numbering of substitutions follows the chain as printed.

In assay [1] the target is T1, human CRTH2 (Homo sapiens, UniProt Q9Y5Y4).
T1 construct: expressed in transfected cells
T1 sequence (Q9Y5Y4 1-395): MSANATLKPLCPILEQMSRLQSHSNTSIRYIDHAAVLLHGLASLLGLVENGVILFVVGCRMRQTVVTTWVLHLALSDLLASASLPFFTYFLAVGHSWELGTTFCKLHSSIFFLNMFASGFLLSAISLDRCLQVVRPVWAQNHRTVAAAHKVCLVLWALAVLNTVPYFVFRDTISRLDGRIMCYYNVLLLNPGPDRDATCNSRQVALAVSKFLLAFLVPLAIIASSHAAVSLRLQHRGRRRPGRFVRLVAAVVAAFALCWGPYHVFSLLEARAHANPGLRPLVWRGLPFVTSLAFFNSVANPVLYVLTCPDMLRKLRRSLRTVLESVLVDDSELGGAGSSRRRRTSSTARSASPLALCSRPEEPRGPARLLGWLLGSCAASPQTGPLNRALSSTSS
As to the kind of experiment: ELISA reactivity against membrane fractions of human CRTH2-expressing CHO/DG44 cells with GTPγS or GDP treatment. The assay is classed as binding. As to conditions: HRP-labeled antibody, FIG. 19. As to the method:
Humanized Lym2 antibody LV0HV1 and hu19A2 v52 were directly labeled with HRP using Peroxidase Labeling Kit-NH2 (Dojindo Molecular Technologies, Inc.) according to the attached document and diluted to 1 mg/mL with D-PBS (−) (NACALAI TESQUE, Inc.).
The human CRTH2-expressing CHO/DG44 cells established in Example 1 were peeled using 0.02% EDTA solution (NACALAI TESQUE, Inc.) and the cells were washed with D-PBS (−) cooled to 4° C. The membrane fractions were prepared using Minute Plasma Membrane Protein Isolation Kit (Invent Biotechnologies) according to the attached document.
50 mM Tris-HCl buffer pH 7.4 (NACALAI TESQUE, Inc.) to which 50 mM HEPES (GIBCO Inc.), 5 mM MgCl2 (NACALAI TESQUE, Inc.), 100 mM NaCl (NACALAI TESQUE, Inc.), and 1 mM EDTA (Invitrogen) were added (hereinafter, referred to as an ELISA reaction solution) was added to the membrane fractions prepared in (2) to have a concentration of 1 mg/mL, and the mixture was added to PROTEOSAVE 1.5 mL Microtubes (Sumitomo Bakelite Co., Ltd.) at 50 μL/tube.
Next, an ELISA reaction solution to which 500 μM GTPγS (Roche Diagnostics K.K.) or 500 μM GDP (Sigma-Aldrich Co. LLC) was added was added to the microtubes at 50 μL/tube for incubation at 30° C. for 1 hour. […]
The absorbance at 480 nm was measured by SPECTRA max 340PC and the obtained result was analyzed using Graphpad Prism (ver. 6.05). […]

Assay [2] deals with T1, human CRTH2. As to the kind of experiment: Reactivity in presence of ligand DKPGD2, human CRTH2-expressing 293 EBNA cells. The assay is classed as binding. Conditions: DKPGD2 10 μM; antibody 0.3, 1 and 3 μg/mL; relative to absence of DKPGD2; FIG. 13. As to the method:
Human CRTH2-expressing 293 EBNA cells were established by introducing the human CRTH2 gene expression pAMoh vector prepared in Example 1-(1)-(ii) into 293 EBNA cells (Invitrogen) using Fugene 6 (Promega Corporation) and selecting drug-resistant cells by culture medium formed of 10% FBS, 0.25 mg/mL of G418 (NACALAI TESQUE, Inc.), […] (NACALAI TESQUE, Inc.), and 300 μg/mL of hygromycin B (Wako Pure Chemical Industries) in DMEM.
The human CRTH2-expressing 293 EBNA cells were peeled using 0.02% EDTA solution (NACALAI TESQUE, Inc.), washed with PBS, and suspended with the above-described culture medium. […]
After the cells were washed 5 times with SM, 10 μg/mL of goat anti-Human IgG Alexa 647 (Molecular Probes) diluted with SM was added to wells to which LV0HV1, hu19A2 v52, hu8B1 v1, ch3C12, or ch31A5 was added, 10 μg/mL of goat anti-Rat IgG Alexa 647 (Molecular Probes) diluted with SM was added to wells to which BM16 was added, and 10 μg/mL of goat anti-Mouse IgG Alexa 647 (Molecular Probes) diluted with SM was added to wells to which 301108 was added at a final concentration of 10 μg/mL to cause a reaction at 4° C. for 40 minutes. After the cells were washed again, the cells were suspended with SM, and the fluorescent intensity was analyzed by flow cytometry (BD Biosciences, FACS CantoII).

The subject of the next assay is human eosinophils. The experiment in a line: Agonist activity using shape change of human eosinophils as index (Example 20). Conditions: 0 to 10 μg/mL, 1 hour; FIG. 17. The assay is classed as cell-based. How it is done:
In the same experimental system as in Example 19 described above, rat anti-human CRTH2 antibody Lym2 at each final concentration of 0, 0.01, 0.1, 1, and 10 μg/mL was added and a reaction was performed for 1 hour and shape change of eosinophils was analyzed.

B1: LV0HV1: humanized Lym2 antibody, VL LV0 (SEQ ID NO: 33), VH HV1 (SEQ ID NO: 51) (antibody, V domains shown)
VH: EVQLVESGGGVVQPGRSLRLSCAASGFTFSNYYMAWVRQAPGKGLEWVATISYDGSSTYYRDSVKGRFTISRDNAKNSLYLQMNSLRAEDTATYYCARHRGYYYSGAGYFDYWGQGTMVTVSS
VL: DIVMTQTPLSLPVTPGESASISCRSSQSLEYSDGYTYLEWYLQKPGQSPQVLIYGVSNRFSGVPDRFSGSGSGTDFTLKISRVEAEDVGVYYCFQATHDPLTFGQGTKLEIK
With B1, in the assay with human CRTH2 [1], the “reactivity with respect to membrane fractions at GDP treatment compared to GTPγS treatment” value is on record as “not changed”. Besides, in the assay with human CRTH2 [2], the “binding to human CRTH2-expressing cells in the presence of DKPGD2” value is “almost not decreased”.

B2: Lym2 antibody: rat anti-human CRTH2 monoclonal antibody from hybridoma Lym2, rat IgG2b; VH SEQ ID NO: 17, VL SEQ ID NO: 19 (antibody, listed as Rattus norvegicus, V domains shown)
VH: B1 VH with V11L, L18M, R19K, G42K, N77S, S78T, N84D, A88S, T117V
VL: DVVLTQTPVSLSVTLGDQASISCRSSQSLEYSDGYTYLEWYLQKPGQSPQVLIYGVSNRFSGVPDRFIGSGSGTDFTLKISRVEPEDLGVYYCFQATHDPLTFGSGTKLEIK
As for B2, the “shape change of eosinophils caused by antibody (agonist activity)” value in the assay with human eosinophils is “doesn't cause the shape change”.
